In PMC5256927, “Proteolysis-Dependent Remodeling of the Tubulin Homolog FtsZ at the Division Septum in Escherichia coli” (PLoS ONE, 2017):

What was measured:
[1] = molecular target: Gfp-ZC67(R379E) (E. coli) (UniProt P0A9A6)
Gfp-ZC67 (E. coli) = Gfp-ZC67 (E. coli) (UniProt P0A9A6)
[2] = molecular target: the molecule itself; experiment: co-sedimentation; polymers collected by ultracentrifugation (129,000xg, 30 min, 23°C) after 3 min with GTP (2 mM) and a regenerating system in 50 mM MES pH 6.5, 100 mM KCl, 10 mM MgCl2; FtsZ and/or Gfp-FtsZ, 10 μM total; pellets and supernatants by SDS-PAGE
[3] = molecular target: the molecule itself; experiment: cross-linking + other: sucrose gradient fractionation; without GTP; labeled FtsZ 24 μM in 50 mM MES pH 6.5, 100 mM KCl, 10 mM MgCl2; cross-linked with DSP (0.6 mM), 5–20% sucrose gradient with 40% cushion, 100,000xg, 180 min, 4°C; fractions read by fluorescence

Q: For “ClpXP (from UniProt P0A6H1 1-424; P0A6G7 15-207) (complex)”, which degradation of Gfp-ZC67(R379E) (3 μM) by ClpXP (1 μM) with ATP (5 mM): loss of fluorescence with time, against Gfp-ZC67 (% more slowly than Gfp-ZC67) [1] is on record?
A: Its degradation of Gfp-ZC67(R379E) (3 μM) by ClpXP (1 μM) with ATP (5 mM): loss of fluorescence with time, against Gfp-ZC67 (% more slowly than Gfp-ZC67) is 50.

Q: What about the degradation of Gfp-ZC67 (3 μM) by ClpXP (1 μM) with ATP (5 mM): loss of Gfp fluorescence after 60 min (% of the initial fluorescence) (Gfp-ZC67 (E. coli)) of the same molecule?
A: The degradation of Gfp-ZC67 (3 μM) by ClpXP (1 μM) with ATP (5 mM): loss of Gfp fluorescence after 60 min (% of the initial fluorescence) was 25.

B1: FtsZ (natural protein, E. coli, UniProt P0A9A6 1-383, looked up)
chain: MFEPMELTNDAVIKVIGVGGGGGNAVEHMVRERIEGVEFFAVNTDAQALRKTAVGQTIQIGSGITKGLGAGANPEVGRNAADEDRDALRAALEGADMVFIAAGMGGGTGTGAAPVVAEVAKDLGILTVAVVTKPFNFEGKKRMAFAEQGITELSKHVDSLITIPNDKLLKVLGRGISLLDAFGAANDVLKGAVQGIAELITRPGLMNVDFADVRTVMSEMGYAMMGSGVASGEDRAEEAAEMAISSPLLEDIDLSGARGVLVNITAGFDLRLDEFETVGNTIRAFASDNATVVIGTSLDPDMNDELRVTVVATGIGMDKRPEITLVTNKQVQQPVMDRYQQHGMAPLTQEQKPVAKVVNDNAPQTAKEPDYLDIPAFLRKQAD
notes: FtsZ, E. coli, cell division protein (tubulin homolog); schematic gives polymerization domain 1-316, unstructured linker 317-369, C-terminal region 370-383; plasmid pET-FtsZ; also called native FtsZ; wild type FtsZ; source: E. coli BL21 (λDE3), purified as described [24,25,72,73]
Q: Does B1 bind [2]?
A: Result: binds

B2: Alexa Fluor labeled FtsZ (FtsZ-AF488) (natural protein, E. coli, UniProt P0A9A6 1-383, looked up)
chain: B1 chain
modifications: Alexa Fluor 488 label (site not stated)
notes: FtsZ, E. coli, as m1, labeled with Alexa Fluor; schematic gives regions 1-316, 317-369, 370-383; also called labeled fluorescent FtsZ; Fluorescence-labeled FtsZ; source: E. coli BL21 (λDE3), purified, labeled with Alexa Fluor 488; fluorescent active subunits obtained by cycles of polymerization and depolymerization
Q: With B2 as the molecule, how does the “stoichiometry N” value [3] read?
A: Its value is 2.
